Where a chain is given by its changes, count along the chain named.

Here are results for 26 molecules from patent US11834499 (University of California, dated 2023).

The chains are these.
T1: mouse CLDN18.2 (mouse, UniProt P56857 10-264, Expressed on HEK293T cells as a fusion to GFP. The GFP is left out of the letters.)
T1 construct: also called mouse CLDN18.2 fused to GFP; not shown: The GFP fused to mouse CLDN18.2, and any linker to it
T1 chain: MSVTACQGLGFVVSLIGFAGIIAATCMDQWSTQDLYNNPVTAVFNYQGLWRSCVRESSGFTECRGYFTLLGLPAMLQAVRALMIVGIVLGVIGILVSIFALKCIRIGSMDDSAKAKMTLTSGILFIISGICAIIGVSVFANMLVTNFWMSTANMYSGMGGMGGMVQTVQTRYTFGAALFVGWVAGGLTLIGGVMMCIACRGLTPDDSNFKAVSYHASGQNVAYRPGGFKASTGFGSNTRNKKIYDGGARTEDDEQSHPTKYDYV

B1: Zolbetuximab (Benchmark 3) (antibody, V domains shown)
VH: QVQLQQPGAELVRPGASVKLSCKASGYTFTSYWINWVKQRPGQGLEWIGNIYPSDSYTNYNQKFKDKATLTVDKSSSTAYMQLSSPTSEDSAVYYCTRSWRGNSFDYWGQGTTLTVSS
VL: DIVMTQSPSSLTVTAGEKVTMSCKSSQSLLNSGNQKNYLTWYQQKPGQPPKLLIYWASTRESGVPDRFTGSGSGTDFTLTISSVQAEDLAVYYCQNDYSYPFTFGSGTKLEIK
notes: also called zoletuximab
B2: Ab 360 (antibody, V domains shown)
VH: VVQLQQSGPELVKPGASVKMSCKASGYTFTSYLMHWVRQKPGLGLDWIGYINPYNDGTNYNAKFIDKATLTSDKTSSTAYMELSSLTSEDSAIYYCTRGDYWGQGTSVTVSS
VL: B1 VL with T12A, K18Q, T59I, E61Q, Q95L, S99G, Y100F, F102L, S106A, I112L
notes: also called 360-Chim
B3: Ab 358 (antibody, V domains shown)
VH: VVQLVESGGDFVQPGGSRKLSCAVSGFTFSSFGMHWVRQAPEKGLEWVAYISSGTTNIYYADTVKGRFTVSRDNPKNSLFLHMTSLRSEDTAMYYCVRSGYYGNSLDYWGQGTPLTVSS
VL: B1 VL with L30F, K36R, D76G, V91F, D97V, S99I, F102L, S106L, I112L, K113R
B4: Ab 307 (antibody, V domains shown)
VH: DVKLVESGGGLVKPGGSLKLSCAASGFTFSSYTMSWVRQTPEKRLEWVATIIIGGSYTYYPDSVKGRFTISRDNAKNTLYLQMSSLKSEDTAMYYCTRLVKGNAMDYWGQGTSVAVSS
VL: B1 VL with A15T, T40S, K45I, I54F, S83N, S106A, I112L, K113R
B5: HuAb360-3 (antibody, V domains shown)
VH: QVQLVQSGAEVKKPGASVKMSCKASGYTFTSYLMHWVRQAPGQGLEWIGYINPYNDGTNYAQKFQGRATLTSDTSTSTAYMELSSLRSEDTAVYYCTRGDYWGQGTLVTVSS
VL: DIVMTQSPDSLAVSLGERATINCKSSQSLLNSGNQKNYLTWYQQKPGQPPKLLIYWASIRQSGVPDRFSGSGSGTDFTLTISSLQAEDVAVYYCLNDYGFPLTFGQGTKLEIK
B6: HuAb360-2 (antibody, V domains shown)
VH: B5 VH with M20V, A68V, L70M, A79V
VL: B5 VL with A19V, I21M, L84V
B7: HuAb360-4 (antibody, V domains shown)
VH: B5 VH
VL: B5 VL with A19V, I21M, L84V
B8: HuAb360-5 (antibody, V domains shown)
VH: B5 VH with T74K
VL: B5 VL
B9: HuAb360-1 (antibody, V domains shown)
VH: B5 VH with M20V, A68V, L70M, A79V
VL: B5 VL
B10: HuAb360-6 (antibody, V domains shown)
VH: B5 VH with T74K
VL: B5 VL with A19V, I21M, L84V
B11: Ab 384 (antibody, V domains shown)
VH: QVQLQQSGAELARPGASVKLSCKASDYTFTSYVISWVKQRTGQGLEWIGEIYPRNGNTYYNEKFKGKATLTADKSSSTAYMELRSLTSEDSAVYFCARSYYGNSFAYWGQGTLVTVSA
VL: B1 VL with K45R, Y93C, D97N, S99Y, S106G, E111G
B12: Ab 376 (antibody, V domains shown)
VH: B4 VH with E46Y, I52S, I53S, G55V, V100T, A115T
VL: B1 VL with D76G, S106A, I112L
B13: 02-0307-5h antibody (antibody, V domains shown)
VH: EVQLLESGGGLVQPGGSLRLSCAASGFTFSSYTMSWVRQAPGKGLEWVATIIIGGSYTYYADSVKGRFTISRDNSKNTLYLQMNSLRAEDTAVYYCTRLVKGNAMDYWGQGTLVTVSS
VL: DIVMTQSPDSLAVSLGERVTMNCKSSQSLLQSGNQKNYLSWYQQKPGQPPKLLFYWASTRESGVPDRFSGSGSGTDFTLTISSVQAEDVAVYYCQNDYSYPFTFGQGTKLEIK
notes: also called 02-h1F06-5h
B14: 02-0358-4h antibody (antibody, V domains shown)
VH: EVQLVESGGGLVQPGGSLRLSCAVSGFTFSSFGMHWVRQAPGKGLEWVAYISSGTTNIYYADSVKGRFTVSRDNAKNSLYLQMNSLRAEDTAVYYCVRSGYYGNSLDYWGQGTLVTVSS
VL: B13 VL with L30F, K36R, S40T, F54I, D97V, S99I, F102L
B15: 02-0307-10h antibody (antibody, V domains shown)
VH: B13 VH with N103S
VL: B13 VL with Q31N
notes: also called 02-h1F06-10h
B16: 02-0307-9h antibody (antibody, V domains shown)
VH: B13 VH with N103Q
VL: B13 VL with Q31S
notes: also called 02-h1F06-9h
B17: 02-0307-8h antibody (antibody, V domains shown)
VH: B13 VH with N103Q
VL: B13 VL
notes: also called 02-h1F06-8h
B18: 02-0358-7h antibody (antibody, V domains shown)
VH: B14 VH with N104S
VL: B13 VL with L30F, Q31N, K36R, S40T, F54I, D97V, S99I, F102L
B19: 02-0358-6h antibody (antibody, V domains shown)
VH: B14 VH with N104Q
VL: B13 VL with L30F, Q31N, K36R, S40T, F54I, D97V, S99I, F102L
B20: 02-0307-11h antibody (antibody, V domains shown)
VH: B13 VH with N103S
VL: B13 VL
notes: also called 02-h1F06-11h
B21: 02-0358-10h antibody (antibody, V domains shown)
VH: B14 VH with N104S
VL: B13 VL with L30F, K36R, S40T, F54I, D97V, S99I, F102L
B22: 02-0358-11h antibody (antibody, V domains shown)
VH: B14 VH with N104S
VL: B13 VL with L30F, Q31S, K36R, S40T, F54I, D97V, S99I, F102L
B23: 02-0358-9h antibody (antibody, V domains shown)
VH: B14 VH with N104Q
VL: B13 VL with L30F, Q31S, K36R, S40T, F54I, D97V, S99I, F102L
B24: 02-0307-7h antibody (antibody, V domains shown)
VH: B13 VH with N103Q
VL: B13 VL with Q31N
notes: also called 02-h1F06-7h
B25: 02-0358-8h antibody (antibody, V domains shown)
VH: B14 VH with N104Q
VL: B13 VL with L30F, K36R, S40T, F54I, D97V, S99I, F102L
B26: 02-0307-12h antibody (antibody, V domains shown)
VH: B13 VH with N103S
VL: B13 VL with Q31S
notes: also called 02-h1F06-12h

The target in one assay is T2, human Claudin-18.2 (CLDN18.2) (human).
T2 construct: On cells: fused to GFP in engineered HEK293T cells (clone C12), endogenous in HUPT4 and SNU601 cells; also called human CLDN18.2
As to the kind of experiment: FACS, 1.5 ug antibody, HEK293T-CLDN18.2 C12 clone cells. (In general: In flow cytometry, cells or beads pass a laser one at a time.)
Turning to B1, the “FACS signal (relative antigen binding strength)” value was found to be 109000.

In the case of B2, the “FACS signal (relative antigen binding strength)” value came out at 117000.

Turning to B3, the “FACS signal (relative antigen binding strength)” value worked out at 139000.

As to B4, the “FACS signal (relative antigen binding strength)” value is 141000.

Consider B5, for which the “FACS signal (relative antigen binding strength)” value amounted to 157000.

For B6, the “FACS signal (relative antigen binding strength)” value is 138000.

Take B7: the “FACS signal (relative antigen binding strength)” value was determined as 149000.

B8: the “FACS signal (relative antigen binding strength)” value was 138000.

For B9, the “FACS signal (relative antigen binding strength)” value stood at 120000.

As for B10, the “FACS signal (relative antigen binding strength)” value came out at 159000.

In another assay the target is T1, mouse CLDN18.2. Nature of the assay: FACS dose curve, AF647-labelled IgG on HEK293T mouse CLDN18.2 MP cells.
In the case of B11, the binding result is listed as “no binding (tested: 0.32 nM to 1000 nM)”.

B12: the binding result is reported as “no binding (tested: 0.32 nM to 1000 nM)”.

The next assay has as its target T2, human Claudin-18.2 (CLDN18.2). Nature of the assay: flow cytometry; HEK293T CLDN18.2 over HEK293T parental [Cont.].
Description: (§1) The samples were then measured by Intellicyt® iQue Advanced Flow Cytometry Platform.
Take B13: the “ratio OE” value is 408.

Turning to B14, the “ratio OE” value is 575.

For B15, the “ratio OE” value was found to be 202.

On to B16, for which the “ratio OE” value came to 273.

On to B17, for which the “ratio OE” value was determined as 166.

With B18, the “ratio OE” value was 449.

Regarding B19, the “ratio OE” value amounted to 435.

Take B20: the “ratio OE” value came out at 40.

B21: the “ratio OE” value is 274.

With B22, the “ratio OE” value came out at 456.

Take B23: the “ratio OE” value is 453.

Take B24: the “ratio OE” value turned out to be 326.

As for B25, the “ratio OE” value amounted to 229.

As for B26, the “ratio OE” value worked out at 183.

The target is the same in another assay. As to the kind of experiment: flow cytometry; HUPT4 over M202 [Cont.].
Description: as §1
For B13, the ratio native turned out to be 121.

B14: the ratio native came out at 94.

In the case of B15, the ratio native is 6.42.

Turning to B16, the ratio native was 45.1.

On to B17, for which the ratio native stood at 12.2.

For the molecule B18, the ratio native worked out at 94.1.

On to B19, for which the ratio native is 79.9.

With B20, the ratio native came to 1.52.

For the molecule B21, the ratio native came out at 54.1.

B22: the ratio native is 88.8.

As to B23, the ratio native is 93.4.

As for B24, the ratio native stood at 22.5.

Take B25: the ratio native was found to be 57.9.

For B26, the ratio native amounted to 9.89.

For the next assay the target is unchanged. Nature of the assay: FACS, 1.5 ug antibody, HUPT4 cells (endogenous CLDN18.2).
Description: FACS assays were carried out to determine relative antigen binding strengths of the humanized antibodies (at either 1.5 μg or 0.3 μg) for binding to CLDN18.2 as expressed by the indicated cancer cell lines.
With B1, the “FACS signal (relative antigen binding strength)” value was 10600.

Consider B2, for which the “FACS signal (relative antigen binding strength)” value came out at 26200.

As for B3, the “FACS signal (relative antigen binding strength)” value was found to be 33300.

On to B4, for which the “FACS signal (relative antigen binding strength)” value was found to be 34700.

For B5, the “FACS signal (relative antigen binding strength)” value was 27400.

On to B6, for which the “FACS signal (relative antigen binding strength)” value came out at 24900.

Take B7: the “FACS signal (relative antigen binding strength)” value is 28000.

For B8, the “FACS signal (relative antigen binding strength)” value is 28600.

In the case of B9, the “FACS signal (relative antigen binding strength)” value turned out to be 26400.

In the case of B10, the “FACS signal (relative antigen binding strength)” value is 34600.
